Assay results published in US20020132769A1.

Target: fiber on the vector capsid of the adenoviral vector Av3GFP (adenovirus, serotype not stated)
Assay: cell-based or functional assay

“trimerized sCAR (sCAR followed by a glycine/serine linker, the isoleucine variant GCN4 trimerization domain, and a 6 His Tag; plasmid pGStriCARb) (receptor)” showed a % GFP Positive HepG2 cells, Av3GFP + 5 µg trimeric sCAR (Av3GFP alone: 98) of 43%, a % GFP Positive HepG2 cells, Av3GFP + 10 µg trimeric sCAR (Av3GFP alone: 98) of 32% and a % GFP Positive HepG2 cells, Av3GFP + 20 µg trimeric sCAR (Av3GFP alone: 98) of 32%.
